{"source": "patent US5928915A", "about": "“CHO cell sialidase by recombinant DNA technology” (Genentech, Inc., priority 1997, dated 1999)", "biological_target": "T1, CHO cell sialidase (Cricetulus griseus, UniProt Q64393)", "T1 construct": "The sialidase described was purified from the cell culture fluid of a single production cell line (CHO 14.16); endogenous in cells; host or cells: CHO 14.16 cells (purified from the cell culture fluid)", "T1 sequence (Q64393 whole entry)": "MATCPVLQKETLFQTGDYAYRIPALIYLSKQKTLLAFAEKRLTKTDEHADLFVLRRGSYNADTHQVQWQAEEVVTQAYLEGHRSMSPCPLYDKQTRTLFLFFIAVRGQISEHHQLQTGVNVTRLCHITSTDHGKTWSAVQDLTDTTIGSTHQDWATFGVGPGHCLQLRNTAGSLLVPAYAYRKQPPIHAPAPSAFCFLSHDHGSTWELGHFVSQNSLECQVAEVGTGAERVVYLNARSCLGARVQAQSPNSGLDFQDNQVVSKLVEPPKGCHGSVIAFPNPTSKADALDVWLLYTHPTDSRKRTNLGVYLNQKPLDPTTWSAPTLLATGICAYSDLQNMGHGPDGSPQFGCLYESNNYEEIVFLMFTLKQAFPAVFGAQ", "test": "Sialidase kinetic constants with soluble sialylglycoconjugate substrates", "format": "biochemical, Chinese hamster", "experimental": "Fluorescent sialidase assays: Standard assay conditions for monitoring the enzyme activity during purification using the fluorescent substrate analog are: 1.3 mM 4-MUNeu5Ac, 50 mM phosphate buffer, pH 6.8, 0.3 mg bovine serum albumin and varying amounts of enzyme in a total volume of 30 μl. After addition of enzyme the samples are incubated at 37° C. in a shaking water bath for 5 minutes. The reaction is terminated and the fluorescence of the liberated umbelliferone is enhanced by the addition of 2 ml of 80 mM glycine-carbonate buffer, pH 9.7. Quantification of the product is made by measuring the fluorescence of the samples with excitation at 365 nm and emission at 450 nm using a standard of 4-methyl umbelliferone. A unit of enzyme activity is defined as a μmol/min of sialic acid liberated.\nSialidase assays with natural substrates: When natural substrates are tested with the purified enzyme, the amount of released sialic acid is measured using the thiobarbituric acid assay as modified by Uchida [Uchida et al. J. Biochem., 82:1425 (1977)] using sialic acid as standard. […] All samples are cleared by centrifugation (1,000×G, 10 min) prior to determining the absorbance at 540 nm.\nEnzyme kinetic parameters: Assay conditions (time and added enzyme) are modified for each substrate so that initial reaction rates are measured. […]"}
{"molecule": "rDeoxyribonuclease 1: encoded by a human-derived nucleotide sequence, was expressed in Chinese hamster ovary cells (protein, UniProt P24855 23-282, looked up) Deoxyribonuclease-1: LKIAAFNIQTFGETKMSNATLVSYIVQILSRYDIALVQEVRDSHLTAVGKLLDNLNQDAPDTYHYVVSEPLGRNSYKERYLFVYRPDQVSAVDSYYYDDGCEPCGNDTFNREPAIVRFFSRFTEVREFAIVPLHAAPGDAVAEIDALYDVYLDVQEKWGLEDVMLMGDFNAGCSYVRPSQWSSIRLWTSPTFQWLIPDSADTTATPTHCAYDRIVVAGMLLRGAVVPDSALPFNFQAAYGLSDQLAQAISDHYPVEVMLK", "values": [{"measurement": "Vmax", "setting": "apparent, standard assay conditions, average of duplicates, relative error about 10%", "value": 12, "unit": "µmol/min/mg"}, {"measurement": "Km values compared (in words)", "setting": "transferrin versus deoxyribonuclease I", "value": "nearly identical"}]}
